In patent US7495068B2, “Antiangiogenic peptides, polypeptides encoding same and methods for inhibiting angiogenesis” (Abbott Laboratories, priority 1996, dated 2009):

B1: kringle 2 (Glu^161-Thr^245): kringle 2 fragment of plasminogen, SEQ ID NO:1 (protein, listed as Homo sapiens)
chain: ECEEECMHCSGENYDGKISKTMSGLECQAWDSQSPHAHGYIPSKFPNKNLKKNYCRNPDRELRPWCFTTDPNKRWELCDIPRCTT
B2: kringle 4 (Val^354-Val^443): kringle 4 fragment of plasminogen, SEQ ID NO:1 (protein, listed as Homo sapiens)
chain: VVQDCYHGDGQSYRGTSSTTTTGKKCQSWSSMTPHRHQKTPENYPNAGLTMNYCRNPDADKGPWCFTTDPSVRWEYCNLKKCSGTEASVV
B3: kringle 5 (Val^443-Ala^543): kringle 5 peptide fragment, amino acid positions 443-543 of human plasminogen (SEQ ID NO:1) (protein, listed as Homo sapiens)
chain: VAPPPVVLLPDVETPSEEDCMFGNGKGYRGKRATTVTGTPCQDWAAQEPHRHSIFTPETNPRAGLEKNYCRNPDGDVGGPWCYTTNPRKLYDYCDVPQCAA

What was measured:
BCE Cells [1] = conditions: rows marked *: data taken from Marti et al. 1994; cited from earlier work
BCE Cells [2] = assay: Endothelial proliferation assay (bFGF-stimulated); format: cell-based, bovine
Protocol: The in vitro proliferation of endothelial cells was determined as described by Lingen, et al., in Laboratory Investigation, 74: 476-483 (1996), which is hereby incorporated herein by reference, using the Cell Titer 96 Aqueous Non-Radioactive Cell Proliferation Assay kit (Promega® Corporation, Madison, Wis.). Bovine capillary (adrenal) endothelial cells were plated at a density of 1000 cells per well in a 96-well plate in Dulbecco's Modified Eagle Medium (DMEM) containing 10% donor calf serum and 1% BSA (bovine serum albumin, GIBCO® BRL, Gaithersburg, Md.). After 8 hours, the cells were starved overnight in DMEM containing 0.1% BSA then re-fed with media containing specified concentrations of inhibitor and 5 ng/mL bFGF (basic fibroblast growth factor). The results of the assay were corrected both for unstimulated cells (i.e. no bFGF added) as the baseline and for cells stimulated with bFGF alone (i.e. no inhibitor added) as the maximal proliferation. When multiple experiments were combined, the results were represented as the percent change in cell number as compared to bFGF alone.
The effect of kringle 5 peptide fragments on endothelial cell proliferation was determined in vitro using the above described endothelial cell proliferation assay. […]

Molecule	Antiproliferative Activity of BCE Cells (ED50) (BCE Cells [1])	fold increase in activity at inhibiting BCE cell proliferation compared to kringle 1-4 peptide fragments (BCE Cells [2]; vs kringle 1-4 peptide fragments) [fold]	fold increase in activity at inhibiting BCE cell proliferation compared to kringle 5 fragment 443-546 of SEQ ID NO:1 (BCE Cells [2]; vs kringle 5 (443-546)) [fold]
B1	no activity		
B2	no activity		
B3		~800	~300
